T1: NLRC5-D2, containing the LRR-R1 (aa 651-898)
T1 chain: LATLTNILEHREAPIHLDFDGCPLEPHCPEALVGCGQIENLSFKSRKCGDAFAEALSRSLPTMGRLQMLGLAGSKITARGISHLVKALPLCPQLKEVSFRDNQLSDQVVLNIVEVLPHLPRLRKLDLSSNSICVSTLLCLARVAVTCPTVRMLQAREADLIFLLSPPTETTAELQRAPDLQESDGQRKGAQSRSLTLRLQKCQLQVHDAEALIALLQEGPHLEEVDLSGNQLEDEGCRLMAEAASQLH

T2: NLRC5-D4, containing the CARD domain and LRR-R3 (aa 1-215 plus 1471-1866)
T2 chain: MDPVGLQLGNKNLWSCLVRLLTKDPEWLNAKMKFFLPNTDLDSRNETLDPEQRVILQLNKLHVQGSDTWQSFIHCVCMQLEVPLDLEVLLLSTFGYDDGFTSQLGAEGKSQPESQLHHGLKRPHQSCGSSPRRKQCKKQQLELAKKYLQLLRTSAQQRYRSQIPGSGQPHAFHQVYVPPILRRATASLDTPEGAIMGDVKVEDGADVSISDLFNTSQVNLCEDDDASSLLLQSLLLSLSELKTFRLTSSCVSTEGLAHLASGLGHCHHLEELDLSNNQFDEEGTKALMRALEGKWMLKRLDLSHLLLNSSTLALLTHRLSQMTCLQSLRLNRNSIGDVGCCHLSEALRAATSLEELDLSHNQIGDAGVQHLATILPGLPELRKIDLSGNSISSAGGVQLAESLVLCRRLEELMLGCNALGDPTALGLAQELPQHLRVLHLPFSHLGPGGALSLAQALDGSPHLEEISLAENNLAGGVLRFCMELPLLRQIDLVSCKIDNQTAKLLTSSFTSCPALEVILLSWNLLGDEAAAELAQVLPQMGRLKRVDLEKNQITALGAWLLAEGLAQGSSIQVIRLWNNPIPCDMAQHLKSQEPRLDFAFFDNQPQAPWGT

T3: NLRC5-D3, containing the link region and LRR-R2 (aa 900-1329)
T3 chain: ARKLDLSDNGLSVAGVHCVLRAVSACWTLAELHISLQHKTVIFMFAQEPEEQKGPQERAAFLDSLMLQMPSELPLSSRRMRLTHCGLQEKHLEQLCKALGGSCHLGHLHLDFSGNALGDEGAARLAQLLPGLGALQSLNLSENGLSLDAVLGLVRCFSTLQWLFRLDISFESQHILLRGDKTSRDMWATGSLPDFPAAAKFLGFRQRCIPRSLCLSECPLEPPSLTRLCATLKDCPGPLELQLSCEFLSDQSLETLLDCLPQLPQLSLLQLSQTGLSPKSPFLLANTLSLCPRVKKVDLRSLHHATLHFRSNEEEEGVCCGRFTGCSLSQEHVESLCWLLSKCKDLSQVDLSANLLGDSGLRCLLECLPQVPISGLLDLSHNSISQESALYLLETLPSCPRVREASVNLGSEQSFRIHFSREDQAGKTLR

T4: NLRC5-D1, containing the CARD and NOD domains (aa 1-517)
T4 chain: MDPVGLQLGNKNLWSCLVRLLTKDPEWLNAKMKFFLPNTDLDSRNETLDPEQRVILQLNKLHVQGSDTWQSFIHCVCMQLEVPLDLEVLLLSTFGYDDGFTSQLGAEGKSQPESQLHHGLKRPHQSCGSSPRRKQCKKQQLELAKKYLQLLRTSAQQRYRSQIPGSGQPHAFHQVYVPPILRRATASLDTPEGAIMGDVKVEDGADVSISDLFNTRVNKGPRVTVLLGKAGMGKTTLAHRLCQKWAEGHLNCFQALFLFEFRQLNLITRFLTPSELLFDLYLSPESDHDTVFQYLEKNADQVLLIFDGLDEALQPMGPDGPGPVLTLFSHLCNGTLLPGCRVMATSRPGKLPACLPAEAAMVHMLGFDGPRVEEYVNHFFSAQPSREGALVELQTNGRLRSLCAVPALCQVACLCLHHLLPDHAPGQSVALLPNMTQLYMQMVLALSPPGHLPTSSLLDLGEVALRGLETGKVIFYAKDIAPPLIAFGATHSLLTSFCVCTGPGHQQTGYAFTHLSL

B1: Flag-tagged IKKβ (full length) (protein)
chain: MSWSPSLTTQTCGAWEMKERLGTGGFGNVIRWHNQETGEQIAIKQCRQELSPRNRERWCLEIQIMRRLTHPNVVAARDVPEGMQNLAPNDLPLLAMEYCQGGDLRKYLNQFENCCGLREGAILTLLSDIASALRYLHENRIIHRDLKPENIVLQQGEQRLIHKIIDLGYAKELDQGSLCTSFVGTLQYLAPELLEQQKYTVTVDYWSFGTLAFECITGFRPFLPNWQPVQWHSKVRQKSEVDIVVSEDLNGTVKFSSSLPYPNNLNSVLAERLEKWLQLMLMWHPRQRGTDPTYGPNGCFKALDDILNLKLVHILNMVTGTIHTYPVTEDESLQSLKARIQQDTGIPEEDQELLQEAGLALIPDKPATQCISDGKLNEGHTLDMDLVFLFDNSKITYETQISPRPQPESVSCILQEPKRNLAFFQLRKVWGQVWHSIQTLKEDCNRLQQGQRAAMMNLLRNNSCLSKMKNSMASMSQQLKAKLDFFKTSIQIDLEKYSEQTEFGITSDKLLLAWREMEQAVELCGRENEVKLLVERMMALQTDIVDLQRSPMGRKQGGTLDDLEEQARELYRRLREKPRDQRTEGDSQEMVRLLLQAIQSFEKKVRVIYTQLSKTVVCKQKALELLPKVEEVVSLMNEDEKTVVRLQEKRQKELWNLLKIACSKVRGPVSGSPDSMNASRLSQPGQLMSQPSTASNSLPEPAKKSEELVAEAHNLCTLLENAIQDTVREQDQSFTALDWSWLQTEEEEHSCLEQAS
B2: Flag-tagged IKKα (protein)
chain: MERPPGLRPGAGGPWEMRERLGTGGFGNVCLYQHRELDLKIAIKSCRLELSTKNRERWCHEIQIMKKLNHANVVKACDVPEELNILIHDVPLLAMEYCSGGDLRKLLNKPENCCGLKESQILSLLSDIGSGIRYLHENKIIHRDLKPENIVLQDVGGKIIHKIIDLGYAKDVDQGSLCTSFVGTLQYLAPELFENKPYTATVDYWSFGTMVFECIAGYRPFLHHLQPFTWHEKIKKKDPKCIFACEEMSGEVRFSSHLPQPNSLCSLVVEPMENWLQLMLNWDPQQRGGPVDLTLKQPRCFVLMDHILNLKIVHILNMTSAKIISFLLPPDESLHSLQSRIERETGINTGSQELLSETGISLDPRKPASQCVLDGVRGCDSYMVYLFDKSKTVYEGPFASRSLSDCVNYIVQDSKIQLPIIQLRKVWAEAVHYVSGLKEDYSRLFQGQRAAMLSLLRYNANLTKMKNTLISASQQLKAKLEFFHKSIQLDLERYSEQMTYGISSEKMLKAWKEMEEKAIHYAEVGVIGYLEDQIMSLHAEIMELQKSPYGRRQGDLMESLEQRAIDLYKQLKHRPSDHSYSDSTEMVKIIVHTVQSQDRVLKELFGHLSKLLGCKQKIIDLLPKVEVALSNIKEADNTVMFMQGKRQKEIWHLLKIACTQSSARSLVGSSLEGAVTPQTSAWLPPTSAEHDHSLSCVVTPQDGETSAQMIEENLNCLGHLSTIIHEANEEQGNSMMNLDWSWLTE

Assays:
[1] = biological target: T1, NLRC5-D2, containing the LRR-R1 (aa …)
[2] = biological target: T2, NLRC5-D4, containing the CARD domain …
[3] = biological target: T3, NLRC5-D3, containing the link region …
[4] = biological target: T4, NLRC5-D1, containing the CARD and NOD …

Protein | phosphorylation of IKKβ [1] | phosphorylation of IKKβ [2] | phosphorylation of IKKβ [3] | phosphorylation of IKKβ [4] | phosphorylation of IKKα [1] | phosphorylation of IKKα [2] | phosphorylation of IKKα [3] | phosphorylation of IKKα [4]
B1 | NLRC5-D1, -D2 and -D4 produced little or only slight inhibition | NLRC5-D1, -D2 and -D4 produced little or only slight inhibition | NLRC5-D3 strongly inhibited IKKα and IKKβ phosphorylation | NLRC5-D1, -D2 and -D4 produced little or only slight inhibition | – | – | – | –
B2 | – | – | – | – | NLRC5-D1, -D2 and -D4 produced little or only slight inhibition | NLRC5-D1, -D2 and -D4 produced little or only slight inhibition | NLRC5-D3 strongly inhibited IKKα and IKKβ phosphorylation | NLRC5-D1, -D2 and -D4 produced little or only slight inhibition

— patent publication US20110229560
